Eight molecules from patent publication US20210130452A1 (Merck KGaA, published 2021) can be followed below.

Experiment [1] has as its target T1, human IL-17A (human, UniProt Q16552 24-155, biotinylated with Sulfo-NHS-LC-Biotin in the AlphaScreen assays only).
T1 construct: also called hIL-17A; recombinant human IL-17A
Kind of experiment: AlphaScreen competition, hIL-17A - IL-17RC-Fc.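 Further: Read-out after 1 h at room temperature with the receptor Fc-fusion, Acceptor beads and streptavidin-coated Donor beads present.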
Procedure: (§1) To this mixture, the IL-17RA or IL-17RC Fc-fusions, Acceptor beads and the streptavidin Donor beads were added and further incubated for 1 hour at RT.

Experiment [2] addresses T1, human IL-17A. Kind of experiment: cell-based or functional assay.
Experiment [3] addresses T2, human IL-17A/F heterodimer (human, UniProt Q16552 24-155; Q96PD4 31-163, limits assumed, biotinylated with Sulfo-NHS-LC-Biotin in the AlphaScreen assays only).
T2 construct: also called hIL-17A/F
Kind of experiment: AlphaScreen competition, hIL-17A/F - IL-17RC-Fc.
Target sequence in this assay (Q16552 24-155 limits assumed, chain 1 of 2, one chain of several): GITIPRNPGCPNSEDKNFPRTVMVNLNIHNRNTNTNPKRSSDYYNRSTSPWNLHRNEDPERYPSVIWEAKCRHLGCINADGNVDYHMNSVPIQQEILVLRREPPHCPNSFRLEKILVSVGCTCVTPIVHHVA
Procedure: as §1

Experiment [4] deals with T2, human IL-17A/F heterodimer. Kind of experiment: AlphaScreen competition, hIL-17A/F - IL-17RA-Fc.
Target sequence in this assay (Q16552 24-155 limits assumed, chain 1 of 2, one chain of several): as above
Procedure: as §1
Experiment [5] concerns the target T1, human IL-17A. Kind of experiment: SPR Biacore, hIL-17A on chip; periplasmic extract (*).
Procedure: (§2) Off-rates of the periplasmic extracts containing anti-IL-17 Nanobodies were measured by Surface Plasmon Resonance (SPR) using a Biacore T100 instrument. […] Periplasmic extracts containing IL-17 neutralizing Nanobodies were injected for 2 minutes at a flow rate of 45 μl/min to allow binding to chip-bound antigen. Next, binding buffer without periplasmic extracts was sent over the chip at the same flow rate to allow spontaneous dissociation of bound Nanobody. From the sensorgrams obtained for the different periplasmic extracts koff-values (k₄) were calculated.
The target of experiment [6] is T1, human IL-17A. Briefly: AlphaScreen competition, hIL-17A - IL-17RA-Fc.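 Further: receptor Fc-fusion plus Acceptor and streptavidin Donor beads incubated with the mixture for 1 h at room temperature before reading.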
Procedure: as §1
Experiment [7] deals with T3, human IL-17F (human, UniProt Q96PD4 31-163, biotinylated with Sulfo-NHS-LC-Biotin in the AlphaScreen assays only).
T3 construct: also called hIL-17F; recombinant human IL-17F
T3 sequence: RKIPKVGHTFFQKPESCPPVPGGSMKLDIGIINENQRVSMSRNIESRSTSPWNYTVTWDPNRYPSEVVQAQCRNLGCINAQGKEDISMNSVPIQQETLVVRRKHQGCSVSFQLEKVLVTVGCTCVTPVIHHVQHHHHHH
Briefly: SPR Biacore, hIL-17F on chip; periplasmic extract (*); NB = no binding.
Procedure: as §2

Experiment [8] has as its target T2, human IL-17A/F heterodimer. Briefly: SPR Biacore, hIL-17A/F on chip; periplasmic extract (*).
Target sequence in this assay (Q16552 24-155 limits assumed, one chain of several): as the sequence (Q16552 24-155 limits assumed, chain 1 of 2, one chain of several) above
Procedure: as §2
Experiment [9] addresses T2, human IL-17A/F heterodimer. Kind of experiment: cell-based or functional assay.
The target in experiment [10] is T3, human IL-17F. Kind of experiment: AlphaScreen competition, hIL-17F - IL-17RC-Fc.
Procedure: as §1
In experiment [11] the target is T4, human IL-17F (human, UniProt Q96PD4 31-163).
T4 construct: GenBank AF384857, expressed in Hek293 as 6-His C-terminal tagged protein; also called hIL-17F; IL-17F-6HIS
T4 sequence: T3 sequence
Briefly: SPR, IL-17F-Nanobody complex over captured IL-17RC.
Source text: (§3) The receptor (IL-17RA or IL-17RC) was captured via its human Fc-tail by an anti-human IgG-Fc antibody coated on the chip.

The target in the next experiment is T5, rat IL-17F (rat, UniProt Q5BJ95 29-161).
T5 sequence (looked up): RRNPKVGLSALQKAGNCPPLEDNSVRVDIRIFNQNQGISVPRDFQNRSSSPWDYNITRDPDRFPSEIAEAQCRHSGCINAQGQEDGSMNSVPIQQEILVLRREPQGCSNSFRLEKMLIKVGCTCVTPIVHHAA
Briefly: ELISA, coated IL-17F.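 Further: binding ELISA on coated antigen from various species, with bound Nanobodies revealed by an HRP-linked anti-myc antibody and esTMB substrate.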

The target of another experiment is T6, mouse IL-17F (mouse, UniProt Q7TNI7 29-161).
T6 sequence (looked up): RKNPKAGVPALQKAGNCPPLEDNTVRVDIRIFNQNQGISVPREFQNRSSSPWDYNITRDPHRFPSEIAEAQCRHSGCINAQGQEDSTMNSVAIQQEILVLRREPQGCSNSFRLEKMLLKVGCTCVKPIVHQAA
Kind of experiment: ELISA, coated IL-17F.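 Further: binding ELISA on coated antigen from various species, with bound Nanobodies revealed by an HRP-linked anti-myc antibody and esTMB substrate.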

For experiment [12], the target named is T4, human IL-17F. Kind of experiment: ELISA, coated IL-17F.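 Further: binding ELISA on coated antigen from various species, with bound Nanobodies revealed by an HRP-linked anti-myc antibody and esTMB substrate.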
Procedure: (§4) Binding of a selected panel of anti-IL-17 Nanobodies to IL-17 of other species was assessed using a binding ELISA. […] HRP (horseradish peroxidase) conjugated anti-myc (Serotec, MCA 2200P) was used for detection using esTMB as substrate.
Another experiment has as its target T7, rat IL-17A (rat, UniProt Q61453 18-150, limits assumed).
T7 sequence (looked up): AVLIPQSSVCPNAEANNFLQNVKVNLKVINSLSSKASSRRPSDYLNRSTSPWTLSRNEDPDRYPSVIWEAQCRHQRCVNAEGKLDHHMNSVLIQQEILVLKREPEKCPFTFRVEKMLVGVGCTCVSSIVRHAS
Briefly: ELISA, coated IL-17A.

The target in experiment [13] is T8, human IL-17A (human, UniProt Q16552 24-155).
T8 construct: secreted form (GenBank U32659) expressed in Hek293 with C-terminal 6-His; also called hIL-17A; IL-17A-6HIS
Kind of experiment: ELISA, coated IL-17A.
T8 sequence (Q16552 other isoform, or with tags, fused parts or gaps): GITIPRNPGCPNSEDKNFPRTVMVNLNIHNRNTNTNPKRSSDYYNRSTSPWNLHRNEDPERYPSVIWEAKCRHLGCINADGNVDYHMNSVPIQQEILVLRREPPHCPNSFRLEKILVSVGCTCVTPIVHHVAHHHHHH
Procedure: as §4

Another experiment addresses T9, mouse IL-17A (mouse, UniProt Q62386 26-158).
T9 sequence (looked up): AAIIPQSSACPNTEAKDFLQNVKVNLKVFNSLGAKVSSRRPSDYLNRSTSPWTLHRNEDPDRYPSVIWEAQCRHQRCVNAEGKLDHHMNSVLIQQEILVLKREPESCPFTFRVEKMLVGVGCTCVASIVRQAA
Briefly: ELISA, coated IL-17A.

Another experiment has as its target guinea pig IL-17A (guinea pig). Kind of experiment: ELISA, coated IL-17A.
Another experiment deals with T10, marmoset IL-17A (marmoset, IL-17A is a disulfide-linked homodimer. One chain is given.).
T10 chain: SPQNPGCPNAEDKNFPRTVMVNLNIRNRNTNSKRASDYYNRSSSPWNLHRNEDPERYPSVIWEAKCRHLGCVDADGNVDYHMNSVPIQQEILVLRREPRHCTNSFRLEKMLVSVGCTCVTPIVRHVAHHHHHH
Kind of experiment: ELISA, coated IL-17A.

In experiment [14] the target is T8, human IL-17A. Kind of experiment: SPR, IL-17A-Nanobody complex over captured IL-17RA.
Source text: as §3
The target in experiment [15] is T11, human IL-17A (human, UniProt Q16552 24-155).
T11 construct: secreted form made in Hek293 cells (GenBank U32659); also called hIL-17A; hIL17A
Kind of experiment: SPR (Biacore) off-rate.
T11 sequence (Q16552 other isoform, or with tags, fused parts or gaps): as the sequence (Q16552 other isoform, or with tags, fused parts or gaps) above

The target of experiment [16] is T12, human IL-17F (human, UniProt Q96PD4 31-163).
T12 construct: made in Hek293 cells (GenBank AF384857); also called hIL-17F; hIL17F
T12 sequence: T3 sequence
Kind of experiment: SPR (Biacore) off-rate.

In experiment [17] the target is T13, human IL-17A/F heterodimer (human, UniProt Q16552 24-155; Q96PD4 31-163, limits assumed).
T13 construct: bought, made in E. coli (R&D Systems 5194-IL/CF); also called hIL-17A/F; hIL17A/F
Briefly: SPR (Biacore) off-rate.

The target in experiment [18] is T12, human IL-17F. Briefly: AlphaScreen hIL-17F-IL-17RC; vs IL17MS13B03.
For experiment [19], the target named is T11, human IL-17A. Briefly: AlphaScreen hIL-17A-IL-17RA; vs IL17MS13B03.

Residue numbers refer to the chain shown, from its start.

T1 sequence (Q16552 other isoform, or with tags, fused parts or gaps): as the sequence (Q16552 other isoform, or with tags, fused parts or gaps) above
T13 sequence (Q16552 24-155 limits assumed, chain 1 of 2, one chain of several): as the sequence (Q16552 24-155 limits assumed, chain 1 of 2, one chain of several) above
Procedure for guinea pig IL-17A: as §4
Procedure for marmoset IL-17A: as §4
Procedure for mouse IL-17A: as §4
Procedure for mouse IL-17F: as §4
Procedure for rat IL-17A: as §4
Procedure for rat IL-17F: as §4

B1: 01D06 (VHH)
VHH: EVQLVESGGGLVQAGGSLRLSCAADGRTFSTYGMTWFRQVPGKEREFVAHIPRSTYSPYYANSVKGRFTIARDDAKSTVYLQMNSLKPEDTAVYYCAVFTGGTYYVPTAYDYWGQGTQVTVSS
notes: Class 2 Nanobody (anti-IL-17A and IL-17A/F); not shown: c-myc, His6 tag
On to B1, for which the IC50 with human IL-17A [1] is 1.52 nM; in experiment [3], 0.198 nM; in experiment [4], 0.401 nM; with human IL-17A [6] it was 0.618 nM. For the same molecule, the “IL-17A-induced IL-6 production in HT-1080 cells, Emax” value (“IL-17A-induced IL-6 production … Emax” below) with human IL-17A [2] is 98.3%. Also, in the experiment with human IL-17A [2], the “IL-17A-induced IL-6 production in HT-1080 cells, IC50” value (“IL-17A-induced IL-6 production … IC50” for short) came to 42.8 nM. Moreover, the dissociation rate constant (koff) with human IL-17A [5] turned out to be 0.00097 s⁻¹; in experiment [8], 0.0013 s⁻¹. The binding result in the experiment with human IL-17F [7] is “no binding”. Moreover, the “IL-17A/F-induced IL-6 production in HT-1080 cells, Emax” value in experiment [9] turned out to be 79.5%. For the same molecule, the “IL-17A/F-induced IL-6 production in HT-1080 cells, IC50” value in experiment [9] was 51.1 nM.

B2: 04A02 (VHH)
VHH: EVQLVESGGGLVQPGGSLRLSCAASRNINIINYMAWYRQAPGNQRELVAAMTSDATTEYADSVKGRFTISRDIPENTVYLQMNSLKPEDTAVYYCNAKGIWDYLGRRDFGDYWGQGTQVTVSS
notes: as for B1
In the case of B2, the IC50 amounted to 0.837 nM with human IL-17A [1], 3.17 nM in experiment [3], 1.96 nM in experiment [4] and 0.399 nM in the experiment with human IL-17A [6]. Besides, the “IL-17A-induced IL-6 production … Emax” value with human IL-17A [2] turned out to be 102%. The “IL-17A-induced IL-6 production … IC50” value in the experiment with human IL-17A [2] came to 12.6 nM. The koff with human IL-17A [5] stood at 0.0013 s⁻¹; in experiment [8] it was 0.011 s⁻¹. For the same molecule, in the experiment with human IL-17F [7], the binding result is on record as “no binding”. In experiment [9], the “IL-17A/F-induced IL-6 production in HT-1080 cells, Emax” value came out at 67.6%. In experiment [9], the “IL-17A/F-induced IL-6 production in HT-1080 cells, IC50” value came out at 70.4 nM.

B3: 09D10 (VHH)
VHH: EVQLVESGGGLVQAGGSLSLSCAASGSVFRIDVMRWHRQAPGKQREFLASIASGGTTNYADSVKGRFTISRDNAKNTVYLQMNSLKPEDTAVYYCGANAESGPYTYWGLGTQVTVSS
notes: as for B1
For B3, the half-inhibitory concentration (IC50) worked out at 1.12 nM with human IL-17A [1]; 69.4 nM in the experiment with human IL-17F [10]; 8.65 nM in [3]; 9.02 nM in experiment [4]; 0.211 nM with human IL-17A [6]. The “IL-17A-induced IL-6 production … Emax” value with human IL-17A [2] came out at 93.5%. Besides, the “IL-17A-induced IL-6 production … IC50” value with human IL-17A [2] turned out to be 8.5 nM. In addition, the results for the koff (with human IL-17A [5]; in experiment [8]) were 0.00015 s⁻¹ and 0.0017 s⁻¹, respectively. Besides, the “IL-17A/F-induced IL-6 production in HT-1080 cells, Emax” value in experiment [9] amounted to 55%. Further, the “IL-17A/F-induced IL-6 production in HT-1080 cells, IC50” value in experiment [9] amounted to 124 nM.

B4: 17C01 (VHH)
VHH: EVQLVESGGRLVQAGGSLRLPCAASGRTFTSYPMGWFRQAPGKEREFVAAISMSGDDAAYADFVRGRFTISRDDARNTVYLHMTSLKPEDTAVYYCAARTSYDGTYDYIDDYSYWGQGTQVTVSS
notes: Class 4
As to B4, the “% Biacore binding (IL-17F-NB)-IL-17RC” value in the experiment with human IL-17F [11] stood at 32.5%. Also, the OD with rat IL-17F is 0.0025 OD; in the experiment with mouse IL-17F it was -0.0005 OD; in the experiment with human IL-17F [12] it was 0.772 OD; in the experiment with rat IL-17A, 0 OD; with human IL-17A [13], 1.83 OD; with mouse IL-17A it was -0.001 OD. Also, the figures for the OD in the experiment with guinea pig IL-17A and in the experiment with marmoset IL-17A were 0.007 OD and 1.84 OD, respectively. The “% Biacore binding (IL-17A-NB)-IL-17RA” value in the experiment with human IL-17A [14] is -2.01%.

B5: IL17MS3047 (VHH)
VHH: EVQLVESGGGLVQPGGSLRLSCAASGRANSINWFGWFRQAPGKEREFVAGIRWSDAYTEYAASVKGRFTISRDNSKNTVYLQMNSLRPEDTAVYYCVLDLSTVRYWGQGTLVTVSS
notes: variant of IL17MS13B03; Kabat numbering
On to B5, for which the koff with human IL-17A [15] worked out at 0.000252 s⁻¹; with human IL-17F [16], 0.00348 s⁻¹; in [17], 0.000538 s⁻¹. Moreover, the “IC50 fold difference compared to WT” value with human IL-17F [18] came out at 0.7 fold; with human IL-17A [19] it was 1.1 fold.

B6: IL17MS3051 (VHH)
VHH: EVQLVESGGGSVQAGDSLRLSCAASGRAFSINWFGWFRQTPGKEREFVAGIRWSDAYTEYANSVKGRFTISRDNAKNTVDLQMDSLKPEDTAVYYCVLDLSTVRYWGQGTQVTVSS
notes: as for B5
On to B6, for which the koff with human IL-17A [15] was determined as 0.000205 s⁻¹; with human IL-17F [16] it was 0.00216 s⁻¹; in experiment [17], 0.000396 s⁻¹. Further, the entries for the “IC50 fold difference compared to WT” value with human IL-17F [18] and with human IL-17A [19] were 0.4 fold and 1.4 fold, respectively.

B7: IL17MS3052 (VHH)
VHH: B6 VHH with F29S
notes: as for B5
Consider B7, for which the results for the off-rate constant (koff) (with human IL-17A [15]; with human IL-17F [16]; in experiment [17]) were 0.000289 s⁻¹, 0.00439 s⁻¹ and 0.000518 s⁻¹, respectively. For the same molecule, the “IC50 fold difference compared to WT” value with human IL-17F [18] was 0.5 fold; in the experiment with human IL-17A [19], 0.9 fold.

B8: IL17MS3053 (VHH)
VHH: B6 VHH with F29N, S30T
notes: as for B5
B8: the koff in the experiment with human IL-17A [15] is 0.000258 s⁻¹; in the experiment with human IL-17F [16], 0.00982 s⁻¹; in experiment [17] it was 0.00052 s⁻¹. Moreover, the figures for the “IC50 fold difference compared to WT” value with human IL-17F [18] and with human IL-17A [19] were 1.2 fold and 1.3 fold, respectively.
